In paper PMC10484726, “Archaeal Hel308 suppresses recombination through a catalytic switch that controls DNA annealing”:

Experiments:
Details in all cases: protein: recombinant; tags: N-terminal His6; label: Cy5 (end label); fork
[1] = biological target: T1, Mth-Hel308 F295A (Methanothermobacter thermautotrophicus, UniProt O26901 1-690, F295A); test: EMSA; 5 mM EDTA; 25 nM DNA; EMSA: 20 mM Tris-HCl pH 7.5, 100 ug/ml BSA, 7% glycerol, 25 mM DTT, 5 mM EDTA, 25 nM Cy5-DNA; 5% TBE gel; no added salt stated; 37 C 10 min stated for duplex DNA reactions
T1 sequence: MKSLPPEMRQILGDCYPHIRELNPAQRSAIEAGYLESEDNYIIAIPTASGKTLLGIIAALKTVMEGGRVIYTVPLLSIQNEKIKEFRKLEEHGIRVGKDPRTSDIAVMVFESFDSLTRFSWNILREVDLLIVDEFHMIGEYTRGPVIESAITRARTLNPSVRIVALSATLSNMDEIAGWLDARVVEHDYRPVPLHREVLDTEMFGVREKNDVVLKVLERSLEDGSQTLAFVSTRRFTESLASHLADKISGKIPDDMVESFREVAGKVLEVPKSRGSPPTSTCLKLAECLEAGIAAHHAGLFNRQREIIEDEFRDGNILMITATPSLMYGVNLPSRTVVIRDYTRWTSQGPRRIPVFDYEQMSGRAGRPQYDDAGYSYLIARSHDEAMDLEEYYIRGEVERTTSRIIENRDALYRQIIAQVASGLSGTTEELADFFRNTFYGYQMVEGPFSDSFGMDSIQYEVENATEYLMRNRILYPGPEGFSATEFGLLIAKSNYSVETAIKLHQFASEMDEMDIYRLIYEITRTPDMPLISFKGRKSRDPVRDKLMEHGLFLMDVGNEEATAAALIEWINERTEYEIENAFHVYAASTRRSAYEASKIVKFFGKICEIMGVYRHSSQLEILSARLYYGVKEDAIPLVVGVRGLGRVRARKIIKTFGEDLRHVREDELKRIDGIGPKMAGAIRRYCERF

[2] = biological target: T2, Mth-Hel308 R591A (Methanothermobacter thermautotrophicus, UniProt O26901 1-690, R591A); test: as above
T2 sequence: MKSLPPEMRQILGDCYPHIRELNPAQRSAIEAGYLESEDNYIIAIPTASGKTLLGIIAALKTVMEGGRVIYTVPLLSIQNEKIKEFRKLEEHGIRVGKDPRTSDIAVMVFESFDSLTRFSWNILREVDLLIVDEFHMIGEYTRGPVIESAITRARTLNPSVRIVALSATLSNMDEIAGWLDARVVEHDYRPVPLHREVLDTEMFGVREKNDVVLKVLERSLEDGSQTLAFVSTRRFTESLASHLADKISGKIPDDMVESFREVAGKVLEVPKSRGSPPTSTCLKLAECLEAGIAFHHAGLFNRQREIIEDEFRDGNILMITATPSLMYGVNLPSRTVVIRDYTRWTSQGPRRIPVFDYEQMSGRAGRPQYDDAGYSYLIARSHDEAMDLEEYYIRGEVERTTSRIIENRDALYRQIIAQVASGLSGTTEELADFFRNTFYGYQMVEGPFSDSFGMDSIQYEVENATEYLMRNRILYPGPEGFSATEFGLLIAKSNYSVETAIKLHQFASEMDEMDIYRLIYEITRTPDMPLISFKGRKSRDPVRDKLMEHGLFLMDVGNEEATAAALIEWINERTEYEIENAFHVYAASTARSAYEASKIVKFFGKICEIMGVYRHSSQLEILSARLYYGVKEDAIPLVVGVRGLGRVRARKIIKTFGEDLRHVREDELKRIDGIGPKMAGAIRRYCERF

[3] = biological target: T3, Mth-Hel308 Y586A (Methanothermobacter thermautotrophicus, UniProt O26901 1-690, Y586A); test: EMSA; 5 mM EDTA; 25 nM DNA; similar to wild type; EMSA: 20 mM Tris-HCl pH 7.5, 100 ug/ml BSA, 7% glycerol, 25 mM DTT, 5 mM EDTA, 25 nM Cy5-DNA; 5% TBE gel; no added salt stated; 37 C 10 min stated for duplex DNA reactions
T3 sequence: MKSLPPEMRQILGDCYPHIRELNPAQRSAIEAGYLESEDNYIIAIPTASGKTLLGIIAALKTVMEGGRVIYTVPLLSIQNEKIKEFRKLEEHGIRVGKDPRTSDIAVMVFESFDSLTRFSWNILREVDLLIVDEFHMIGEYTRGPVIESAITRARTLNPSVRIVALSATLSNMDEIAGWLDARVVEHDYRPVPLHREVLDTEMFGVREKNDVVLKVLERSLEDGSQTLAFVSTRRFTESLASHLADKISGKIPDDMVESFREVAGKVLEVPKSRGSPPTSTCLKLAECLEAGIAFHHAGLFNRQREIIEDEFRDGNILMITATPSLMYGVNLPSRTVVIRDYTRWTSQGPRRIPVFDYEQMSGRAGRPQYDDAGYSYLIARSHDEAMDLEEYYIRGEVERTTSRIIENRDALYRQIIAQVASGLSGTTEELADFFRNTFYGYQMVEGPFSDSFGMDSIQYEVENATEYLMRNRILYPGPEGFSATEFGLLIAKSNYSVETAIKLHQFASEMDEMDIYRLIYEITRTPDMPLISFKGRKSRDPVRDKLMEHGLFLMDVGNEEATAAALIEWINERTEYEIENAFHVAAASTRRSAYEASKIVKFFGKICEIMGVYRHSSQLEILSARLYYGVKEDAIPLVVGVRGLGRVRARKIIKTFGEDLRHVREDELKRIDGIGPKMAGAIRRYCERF

B1: forked DNA substrate (dsDNA)
DNA 1: GTCGGATCCTCTAGACAGCTCCATGATCACTGGCACTGGTAGAATTCGGC
DNA 2: CAACGTCATAGACGATTACATTGCTACATGGAGCTGTCTAGAGGATCCGA
Kd [1]: 19.3 nM | binding result [2]: binds | binding result [3]: binds
